Consider 30 sequences from the nanobody polyreactivity screen of Harvey et al. (2022).

The nature of the data set: yeast display, Sf9 membrane polyspecificity reagent, FACS + sequencing; frameworks hold sequencing errors. The essentials:
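Galactose induction of a Saccharomyces cerevisiae BJ5465 synthetic nanobody display library ran 36–48 hours. The cells were then stained for 1 hour at 4 °C with 10% biotinylated, detergent-solubilized Sf9 membrane reagent, pulled down on streptavidin microbeads and FACS-sorted into low and high (top ~1%) gates on expression and reagent-binding fluorescence. Labels for polyreactivity follow the gate of origin.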
On to “QVQLVESGGGLVQAGGSLRLSCAASGRTFSHNTMGWYRQAPGKERELVAAITGSGASTYYADSVKGRFTISRDNAKNTVYLQMNSLKPEDTAVYYCAKVSRQSWYEYDSWGQVTQVTVSS”, for which the “polyreactivity (PSR sort gate)” value is given as “low polyreactivity”.

“QVQLVESGGGLVQAGGSLRLSCAASGRTFSINAMGWYRQAPGKERELVAAITWSGGSTYYADSVKGRFTISRDNAKNTVYLQMNSLKPEDTAVYYCNAGLGKFPVKGGRRYRLDYWGQGTQVTVSS”: the “polyreactivity (PSR sort gate)” value is on record as “low polyreactivity”. In the case of “QVQLVESGGGLVQAGGSLRLSCAASGRTFSIYAMGWYRQAPGKERELVASITNSDGSTYYADSVKGRFTISRDNAKNTVYLQMNSLKPEDTAVYYWNVDSGKYWSLWTYVQYDDYWGQGTQVTVSS”, the “polyreactivity (PSR sort gate)” value is on record as “low polyreactivity”. Take “QVQLVESGGGLVQAGGSLRLSCAASGRTFSKNVMGWYRQAPGKEREFVARISDSGVGTYYADSVKGRFTISRDNAKNTVYLQMNSLKPEDTAVYYCAAAVWYRGWYRYDYWGQGTQVTVSS”: the “polyreactivity (PSR sort gate)” value is reported as “low polyreactivity”. For the sequence “QVQLVESGGGLVQAGGSLRLSCAASGRTFSKNVMGWYRQAPGKEREFVARISDSGVGTYYADSVKGRFTISRDNAKNTVYLQMNSLKPEDTAVYYCDKQYGGRYGYWGQGTQVTVSS”, the “polyreactivity (PSR sort gate)” value is given as “low polyreactivity”. “QVQLVESGGGLVQAGGSLRLSCAASGRTFSKYAMGWYRQAPGKERELVAAITDGRGDTYYADSVKGRFTISRDNEKNTVYLQMNSLKPEDTAVYYCAADPGYSLYEYWGQGTQVTVSS”: the “polyreactivity (PSR sort gate)” value is “low polyreactivity”. On to “QVQLVESGGGLVQAGGSLRLSCAASGRTFSKYAMGWYRQAPGKERELVAAITSGGGTYYADSVKGRFTNSRDNAKNTVYLQMNSLIPEDTGVYSCAVSVTTVSTYDYWGQGTQVTVSS”, for which the “polyreactivity (PSR sort gate)” value is “low polyreactivity”. Consider “QVQLVESGGGLVQAGGSLRLSCAASGRTFSKYTMGWYRQAPGKERELVAVISRSGTRTYYADSVKGRFTISRDNAKNTVYLQMNSLKPEDTAVYYCAAKDERRSFGMGYWGQGPQVTVSS”, for which the “polyreactivity (PSR sort gate)” value is on record as “high polyreactivity”. Regarding “QVQLVESGGGLVQAGGSLRLSCAASGRTFSLNTMGWYRQAPGTERELVATISYSGDRTYYADSVKGRFTISRDNAKNTVYLQMNSLKPEETAVYYCAAQYWGRSYAGRYDYWGQGTQVTVSS”, the “polyreactivity (PSR sort gate)” value is given as “high polyreactivity”. Under “QVQLVESGGGLVQAGGSLRLSCAASGRTFSLYTMGWYRQAPGKERELVAAISSGDSTNYADSVKGRFTISRDNAKNTVYLQMNSLKPEDTAVYYCAKQQDSTSEFSTSDRRQYDYWGQGTQVTVSS” stands “low polyreactivity”; under “QVQLVESGGGLVQAGGSLRLSCAASGRTFSNAMGWYRQAPGKERELVADISSGGSTNYADSVKGRFTISRDNAKNTVYLQMNSLKPEDTAVYYCAAVSGSLYGYSDDYWGQGTQVTVSS”, “low polyreactivity”; under “QVQLVESGGGLVQAGGSLRLSCAASGRTFSNYAIGWYRQAPGKEREFVSDISWSVGSTYYADSVKGRFTISRDNAKNTVYLQMNSLKPEDTALYYCATEVPVGGQRHLFKYYYWGQGTQVTVSS”, “low polyreactivity”. Consider “QVQLVESGGGLVQAGGSLRLSCAASGRTFSNYAMGWYRQAPGKERELVAAISSGGSTNYADSVKGRFTISRDNAKNTVYLLMNSLKPEDTAVYYCAARQRAYYGPGFDYWGQGTQVTVSS”, for which the “polyreactivity (PSR sort gate)” value is “low polyreactivity”.

As for “QVQLVESGGGLVQAGGSLRLSCAASGRTFSNYVMGWYRQAPAKERELVAAITYSGGSTYYADSVKGRFTISRDNATNTVYLQMNSLKPEDTAVYYCARRWGGRGYYYWGQGTQVTVSS”, the “polyreactivity (PSR sort gate)” value is “high polyreactivity”. The result for “QVQLVESGGGLVQAGGSLRLSCAASGRTFSPYAMGWYRQAPGKERDLVAAINGGGGTTYYADSVKGRFTISRDNAKNTVYLQMNSLKPEDTAVYYCAAGYNYTSYADLDYWGQGTQVTVSS” reads “low polyreactivity”.

For the sequence “QVQLVESGGGLVQAGGSLRLSCAASGRTFSPYDMGWSRQAPGKERELVAAISFSDTITYYADSVKGRFTISRDNAKNTVYLQMNSLKPEDTAVYYCAADAGGYYEWELYDYWGQGTQVTVSS”, the “polyreactivity (PSR sort gate)” value is recorded as “low polyreactivity”. As to “QVQLVESGGGLVQAGGSLRLSCAASGRTFSPYVMGWYRQAPGKETELVATITGGGGSTYYADSVKGRFTISRDNAKNTVFLQMNSLKPEDTAVYYCARGYRYYVYRMGYWGQGTQVTVSS”, the “polyreactivity (PSR sort gate)” value is on record as “high polyreactivity”. Take “QVQLVESGGGLVQAGGSLRLSCAASGRTFSRNAMGWYRQAPGKERELVAAISRSGGSTYYADSVKGRFTISRDNAKNTVYFQLNSLKPEDTAVYYCKADVYSTYYNYNYWGQGTQVTVSS”: the “polyreactivity (PSR sort gate)” value was “high polyreactivity”. In the case of “QVQLVESGGGLVQAGGSLRLSCAASGRTFSRYAMGWYRQAPGKEREFVAAISASGGSTYYADSVKGRFTISRDNAKNTVYLQMNSLKPEDTAVYYCAASGYYRYYQYRYDYWGQGTQVTVSS”, the “polyreactivity (PSR sort gate)” value was “high polyreactivity”. For the sequence “QVQLVESGGGLVQAGGSLRLSCAASGRTFSRYAMGWYRQAPGKERELVAAISNSGASTYYADSVKGRFTISRDNAKNTVYLQMNSLKPEDTAVYYCAAERYRLSYQYQEYYYWGQGTQVTVSS”, the “polyreactivity (PSR sort gate)” value is “high polyreactivity”. With “QVQLVESGGGLVQAGGSLRLSCAASGRTFSSNAMGWYRQDPGKERELVASISFRGGRTYYADSVKGRFTISRDNAKNTVYLQMNSLKPEVTAVYYCVSGTKRTGYGYWGQGTQVTVSS”, the “polyreactivity (PSR sort gate)” value was “high polyreactivity”. Consider “QVQLVESGGGLVQAGGSLRLSCAASGRTFSSYAMGWYIQAPGKERELVAAITRGGGSTYYADSVKGRFTISRDNAKNTVYLQMNSLKPEDTAVYYCAADYGRDYRAFNYWGQGTQVTVSS”, for which the “polyreactivity (PSR sort gate)” value is given as “high polyreactivity”. On to “QVQLVESGGGLVQAGGSLRLSCAASGRTFSSYAMGWYRQAPGKERELVADINRSGGSTYYADSVKGRFTISRDNAKNTVYLQMNSLKPEDTAVYYCNVRIWPWYGYDYWGQGTQVTVSS”, for which the “polyreactivity (PSR sort gate)” value is reported as “low polyreactivity”. As to “QVQLVESGGGLVQAGGSLRLSCAASGRTFSSYAMGWYRQAPGKERELVASISKSGGSTSYADSVKGRFTISRDNAKNTVYLQMNSLKPEDTAVYYCNARLDYSTYESSPVTRKRYYWGQGTQVTVSS”, the “polyreactivity (PSR sort gate)” value is “low polyreactivity”. For the sequence “QVQLVESGGGLVQAGGSLRLSCAASGRTFSTNVMGWYRQAPGKERELVAAITTSSSRTYYADSVKGRFTISRDNAKNTVYLQMNSLKPEDTAVYYCAARIHGSWSFDYWGQCTQVTVSS”, the “polyreactivity (PSR sort gate)” value is listed as “low polyreactivity”. For the sequence “QVQLVESGGGLVQAGGSLRLSCAASGRTFSTYAMGGYRQAPGKERELVAVIRRDGSTSYADSVKGRFTISRDNAKNTVYLQMNSLKPEDTAVYYCAVTRRGEYYWGQGTQVTVSS”, the “polyreactivity (PSR sort gate)” value is on record as “high polyreactivity”. Regarding “QVQLVESGGGLVQAGGSLRLSCAASGRTFSTYAMGWYRQAPGKERELVAAISWRGARTYYADSVKGRFTISRDNAKNTVYLQMNSLKPEDTAVYYCAVRSLVAIRGRAYYYWGQGTQVTVSS”, the “polyreactivity (PSR sort gate)” value is given as “high polyreactivity”. The result for “QVQLVESGGGLVQAGGSLRLSCAASGRTFSTYTMGWYRQAPGKERELVAAITSSGGGTYYADSVKGRFTISRDNAKNTVYLQMNSLKPEDTAVSYCGTVRTYRPPVRRGYWGQGTQVTVSS” reads “high polyreactivity”; that for “QVQLVESGGGLVQAGGSLRLSCAASGRTFSVNAMGWYRPAPGKERELVAAISWSTGSTYYADSVKGRFTISRDNAKNTVYLQMNSLKPEDTAVYYCAKLYEYRRSRYRTYGYWGQGTQVTVSS”, “high polyreactivity”; that for “QVQLVESGGGLVQAGGSLRLSCAASGRTFSVNAMGWYRQAPGKERELVAAISWDGGSTYYADSVKGRFTISRDNAKNSVYLQMNSLKPEDTAVYYCNKDLYYAYDYWGQGTQVTVSS”, “low polyreactivity”.
